The results in this text go back to patent publication US20240254222A1 (Bayer, published 2024).

Positions count from the first letter of the chain named.

The chains are these.
B1: TPP-23298 (antibody, human IgG4 S228P, lambda, V domains shown)
VH: EVQLLESGGGLVQPGGSLRLSCAASGFTFYSYAMSWVRQAPGKGLEWVSAIGTGGDTYYADSVKGRFTISRDNSKNTLYLQMNSLRAEDTAVYYCARRDDYTSRDAFDYWGQGTLVTVSS
VL: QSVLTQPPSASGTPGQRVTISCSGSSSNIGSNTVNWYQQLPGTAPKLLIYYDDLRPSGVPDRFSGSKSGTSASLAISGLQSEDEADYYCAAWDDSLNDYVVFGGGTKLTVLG
B2: TPP-30788 (antibody, human IgG1, kappa, V domains shown)
VH: EVQLVESGGGLVQPGGSLRLSCAASGFTFSSYYMSWVRQAPGKGLEWVSTIIKSGGYAYYPDSVKDRFTISRDNSKNTLYLQMSSLRAEDTAVYYCVRGGQGAMDYWGQGTTVTVSS
VL: EIVLTQSPATLSLSPGERATLSCRASQSIGDYLHWYQQKPGQAPRLLIKYASQSISGIPARFSGSGSGTDFTLTITSLEPEDFAVYYCQQGYSFPYTFGGGTKLEIKR
notes: prior art, WO 2020/225400; also called BI clone I; Böhringer (BI) Clone I
B3: TPP-30789 (antibody, human IgG1, kappa, V domains shown)
VH: B2 VH with T28P
VL: B2 VL
notes: prior art, WO 2020/225400; also called BI clone II; Böhringer (BI) Clone II
B4: TPP-30791 (antibody, human IgG1, kappa, V domains shown)
VH: B2 VH with V12L, P14L, Y80N, S84N, R98K
VL: B2 VL with T76S
notes: prior art, WO 2020/225400; also called BI clone IV; Böhringer (BI) Clone IV
B5: TPP-30790 (antibody, human IgG1, kappa, V domains shown)
VH: B2 VH with P14L, S84N, R98K
VL: B2 VL with K49Y, T76S
notes: prior art, WO 2020/225400; also called BI clone III; Böhringer (BI) Clone III
B6: TPP-17755 (antibody, human IgG1, lambda, V domains shown)
VH: EVQLLESGGGLVQTGGSLRLSCAASGFTFSDYAMSWVRQAPGKGLEWVSWIYYDSGSKYYADSVKGRFTISRDNSKNTLYLQMNSLRAEDTAVYYCAKLNGDFDYWGQGTLVTVSS
VL: QSVLTQPPSASGTPGQRVTISCSGSSSNIGNNDVSWYQQLPGTAPKLLIYADSHRPSGVPDRFSGSKSGTSASLAISGLRSEDEADYYCGAWDSSLSGYVFGGGTKLTVLG
notes: also called Samsung; Samsung Prior Art F11
B7: TPP-15374 (antibody, human IgG1, lambda, V domains shown)
VH: EVQLLESGGGLVQPGGSLRLSCAASGFTFSSYEMNWVRQAPGKGLEWVSGISWNSGSIGYADSVKGRFTISRDNSKNTLYLQMNSLRAEDTAVYYCARSGYSSSWFDPDFDYWGQGTLVTVSS
VL: QSVLTQPPSASGTPGQRVTISCTGSSSNIGAGYDVHWYQQLPGTAPKLLIYGNSNRPSGVPDRFSGSKSGTSASLAISGLRSEDEADYYCSSYAGSNPYVVFGGGTKLTVLG
notes: human IgG1; also called IgG1, hit from panning; parental mAb
B8: TPP-15370 (antibody, human IgG1, lambda, V domains shown)
VH: B1 VH with Y30S, A33G, S35H, K64M, Y109V
VL: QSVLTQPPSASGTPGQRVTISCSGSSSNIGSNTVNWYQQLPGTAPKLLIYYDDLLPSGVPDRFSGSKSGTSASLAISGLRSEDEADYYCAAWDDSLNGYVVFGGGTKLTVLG
notes: as for B7

One experiment deals with T1, Human Semaphorin3A-Fc (R&D Systems), TPP-13211 (human).
T1 construct: R&D Systems 1250-S3; also called recombinant human Sema3A-Fc chimera
T1 sequence (chain, as listed by the source limits assumed): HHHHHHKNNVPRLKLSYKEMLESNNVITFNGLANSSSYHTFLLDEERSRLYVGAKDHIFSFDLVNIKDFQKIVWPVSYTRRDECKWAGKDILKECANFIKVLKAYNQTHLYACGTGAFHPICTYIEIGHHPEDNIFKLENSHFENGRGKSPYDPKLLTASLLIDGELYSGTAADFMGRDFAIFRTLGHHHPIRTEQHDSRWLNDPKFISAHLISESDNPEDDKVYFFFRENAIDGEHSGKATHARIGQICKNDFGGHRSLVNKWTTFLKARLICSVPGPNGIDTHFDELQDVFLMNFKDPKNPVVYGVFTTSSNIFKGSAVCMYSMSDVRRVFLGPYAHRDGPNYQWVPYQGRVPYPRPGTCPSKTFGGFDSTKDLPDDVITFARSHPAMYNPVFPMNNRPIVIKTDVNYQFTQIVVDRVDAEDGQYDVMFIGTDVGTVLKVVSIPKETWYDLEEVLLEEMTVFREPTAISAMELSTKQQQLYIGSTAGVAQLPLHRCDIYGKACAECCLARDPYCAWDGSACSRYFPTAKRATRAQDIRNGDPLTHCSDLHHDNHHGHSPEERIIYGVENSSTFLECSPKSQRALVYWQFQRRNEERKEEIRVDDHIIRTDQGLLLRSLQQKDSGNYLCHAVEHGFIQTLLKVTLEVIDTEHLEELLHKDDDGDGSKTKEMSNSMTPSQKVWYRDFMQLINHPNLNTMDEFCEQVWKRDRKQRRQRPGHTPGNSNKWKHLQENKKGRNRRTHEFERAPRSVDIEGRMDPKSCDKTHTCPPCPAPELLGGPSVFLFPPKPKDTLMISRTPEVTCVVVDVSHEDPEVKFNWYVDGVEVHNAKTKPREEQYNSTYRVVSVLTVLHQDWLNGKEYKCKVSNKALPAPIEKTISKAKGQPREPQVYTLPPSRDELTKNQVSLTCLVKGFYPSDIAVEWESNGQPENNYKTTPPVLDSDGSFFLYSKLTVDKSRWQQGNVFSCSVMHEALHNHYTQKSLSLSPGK
Description: ELISA, signal on TPP-13211 divided by signal on TPP-19068. An excerpt:
In the in vivo situation Sema3A exists in both forms side by side.
Turning to B1, the “Ratio ELISA binding TPP-13211/TPP-19068” value was determined as 0.66. Take B2: the “Ratio ELISA binding TPP-13211/TPP-19068” value was 0.19.

For the molecule B3, the “Ratio ELISA binding TPP-13211/TPP-19068” value was found to be 0.2. Consider B4, for which the “Ratio ELISA binding TPP-13211/TPP-19068” value was determined as 0.21. B5: the “Ratio ELISA binding TPP-13211/TPP-19068” value is 0.19.

For the next experiment, the target named is T2, Human Semaphorin3A-Sema Domain, TPP-19068 (human, UniProt Q14563 21-569).
T2 construct: produced inhouse in HEK293-6E; also called human monovalent Sema3A domain
T2 sequence: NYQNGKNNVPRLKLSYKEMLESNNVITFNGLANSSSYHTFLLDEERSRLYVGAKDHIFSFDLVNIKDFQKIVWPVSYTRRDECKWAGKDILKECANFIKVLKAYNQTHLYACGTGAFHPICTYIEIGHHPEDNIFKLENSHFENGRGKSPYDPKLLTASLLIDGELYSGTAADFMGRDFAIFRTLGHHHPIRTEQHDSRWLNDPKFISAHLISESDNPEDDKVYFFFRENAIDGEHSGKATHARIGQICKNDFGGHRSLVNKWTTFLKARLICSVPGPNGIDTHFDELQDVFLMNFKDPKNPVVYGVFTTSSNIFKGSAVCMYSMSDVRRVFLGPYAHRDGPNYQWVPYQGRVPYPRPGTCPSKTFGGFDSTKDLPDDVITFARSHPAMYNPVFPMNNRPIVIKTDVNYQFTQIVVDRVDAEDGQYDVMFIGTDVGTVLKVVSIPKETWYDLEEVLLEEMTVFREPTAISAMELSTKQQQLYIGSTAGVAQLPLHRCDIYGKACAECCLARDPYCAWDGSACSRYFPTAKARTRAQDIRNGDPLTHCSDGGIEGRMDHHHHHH
Description: SPR, 100 nM TPP-19068, binding experiment. The procedure: To assess the binding kinetics and affinity of anti-Sema3A antibodies as well as their species cross-reactivity profile, binding assays were conducted using surface plasmon resonance (SPR). Binding assays were performed on a Biacore T200 instrument or on a Biacore 8K+ instrument (Cytiva) at 25° C. using assay buffer HBS P+, 300 mM NaCl, 0.75 mM CaCl₂, 2.5 mM MgCl₂, 1 mg/ml BSA, 0.05% NaN₃. Antibodies were captured either via anti-human Fc IgGs (“Human antibody capture kit”, Order No. BR100839, Cytiva) or in case of Fc-tagged analytes by anti-human Fab IgGs (“Human Fab capture kit”, Order No. 28958325, Cytiva) covalently amine coupled to a Series S CM5 sensor chip (Cytiva). The amine coupling was carried out according to the manufacturer's instructions using 1-ethyl-3-(3-dimethylaminopropyl) carbodiimide hydrochloride (EDC), N-hydroxysuccinimide (NHS) and ethanolamine HCl, pH 8.5 (“Amine Coupling Kit” BR-1000-50, Cytiva.). For phage display hits Fc-tagged human and mouse Sema3A was used as analytes in a concentration range from 1.56-200 nM. Human, mouse, cynomolgus, rat, dog and pig monovalent Sema3A domain were used as analytes in a concentration series from […] in multi cycle kinetics mode or in 100 nM for binding analysis only. The sensor surface was regenerated with glycine pH 2.0 after each antigen injection. Obtained sensorgrams were double referenced (subtraction of reference flow cell signal and buffer injection) and were fitted to a 1:1 Langmuir binding model to derive kinetic data using the Biacore T200 Evaluation software.
For B6, the Kd came to 6.2 nM. With B1, binding was characterised by a dissociation constant (Kd) of 0.13 nM. Take B2: binding was put at a Kd of 0.098 nM.

The target in another experiment is T3, Sema3D (R&D Systems) (Homo sapiens (Human), UniProt O95025 37-777).
T3 sequence: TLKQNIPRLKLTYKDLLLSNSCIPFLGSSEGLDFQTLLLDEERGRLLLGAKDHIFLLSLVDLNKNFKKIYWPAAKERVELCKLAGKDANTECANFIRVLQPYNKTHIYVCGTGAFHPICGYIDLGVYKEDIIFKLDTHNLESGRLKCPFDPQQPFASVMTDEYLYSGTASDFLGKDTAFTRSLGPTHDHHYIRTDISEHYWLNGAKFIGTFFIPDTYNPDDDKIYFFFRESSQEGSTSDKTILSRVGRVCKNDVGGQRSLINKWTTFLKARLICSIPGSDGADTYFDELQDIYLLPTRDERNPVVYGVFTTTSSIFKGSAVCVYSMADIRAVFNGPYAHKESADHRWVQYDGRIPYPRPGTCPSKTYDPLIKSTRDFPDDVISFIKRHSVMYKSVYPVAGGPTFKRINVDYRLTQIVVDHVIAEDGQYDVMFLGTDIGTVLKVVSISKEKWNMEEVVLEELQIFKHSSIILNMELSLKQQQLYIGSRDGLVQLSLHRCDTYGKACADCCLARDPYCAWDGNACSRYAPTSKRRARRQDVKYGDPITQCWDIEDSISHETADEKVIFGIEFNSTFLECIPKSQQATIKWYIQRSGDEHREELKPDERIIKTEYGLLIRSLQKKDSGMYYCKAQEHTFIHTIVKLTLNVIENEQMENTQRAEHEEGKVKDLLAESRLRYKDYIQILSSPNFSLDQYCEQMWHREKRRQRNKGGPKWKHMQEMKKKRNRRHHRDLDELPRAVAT
Description: ELISA.
Take B7: the binding result was “no binding”.

As for B8, the binding result is “no binding”.

A further experiment addresses T4, Sema3B (R&D Systems) (Homo sapiens (Human), UniProt Q13214 25-749).
T4 sequence: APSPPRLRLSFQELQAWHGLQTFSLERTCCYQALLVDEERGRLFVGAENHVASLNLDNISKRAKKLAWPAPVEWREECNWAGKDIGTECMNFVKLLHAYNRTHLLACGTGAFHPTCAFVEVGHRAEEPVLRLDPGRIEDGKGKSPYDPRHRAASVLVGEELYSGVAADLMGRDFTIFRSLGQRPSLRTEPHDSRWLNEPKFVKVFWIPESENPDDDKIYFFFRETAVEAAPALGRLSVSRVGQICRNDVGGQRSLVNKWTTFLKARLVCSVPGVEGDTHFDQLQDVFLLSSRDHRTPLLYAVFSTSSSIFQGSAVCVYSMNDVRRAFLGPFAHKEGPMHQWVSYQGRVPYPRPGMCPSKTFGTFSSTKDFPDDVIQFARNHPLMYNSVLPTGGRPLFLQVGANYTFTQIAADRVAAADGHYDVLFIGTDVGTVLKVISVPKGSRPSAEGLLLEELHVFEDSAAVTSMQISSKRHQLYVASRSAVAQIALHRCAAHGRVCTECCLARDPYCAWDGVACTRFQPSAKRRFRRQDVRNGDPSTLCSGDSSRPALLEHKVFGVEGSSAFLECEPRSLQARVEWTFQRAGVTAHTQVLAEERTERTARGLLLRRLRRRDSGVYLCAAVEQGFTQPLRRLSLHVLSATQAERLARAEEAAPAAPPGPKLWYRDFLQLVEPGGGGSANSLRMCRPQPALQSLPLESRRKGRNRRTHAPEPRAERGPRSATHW
Description: ELISA.
For B7, the binding result is on record as “no binding”. Consider B8, for which the binding result was “no binding”.
